Data reported in patent US20080181886A1, “Polypeptides That Bind Baff And/Or April” (Genentech, Inc., priority 2004, published 2008).

How the values were obtained:
TRX-APRIL (mouse) [1] = target: TRX-APRIL (mouse) (UniProt Q9D777); test: competitive SPR; elute 1
human BAFF [2] = target: human BAFF (UniProt Q9Y275); test: competitive SPR; elute 1
TRX-APRIL (mouse) [3] = target: TRX-APRIL (mouse) (UniProt Q9D777); test: competitive SPR; elute 2
human BAFF [4] = target: human BAFF (UniProt Q9Y275); test: competitive SPR; elute 2
human BAFF [5] = target: human BAFF (UniProt Q9Y275); test: competitive SPR; elute 2; interaction observed, curve not fitted adequately
human BAFF [6] = target: human BAFF (UniProt Q9Y275); test: competitive SPR; elute 1; interaction observed, curve not fitted adequately

human BAFF, sequence (Q9Y275 82-285): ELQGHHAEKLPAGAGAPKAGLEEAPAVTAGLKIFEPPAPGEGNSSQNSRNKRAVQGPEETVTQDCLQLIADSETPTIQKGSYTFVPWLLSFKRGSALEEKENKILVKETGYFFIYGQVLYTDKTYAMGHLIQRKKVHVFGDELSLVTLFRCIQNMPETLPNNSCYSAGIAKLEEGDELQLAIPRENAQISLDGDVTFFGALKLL
TRX-APRIL (mouse), sequence (Q9D777 104-241): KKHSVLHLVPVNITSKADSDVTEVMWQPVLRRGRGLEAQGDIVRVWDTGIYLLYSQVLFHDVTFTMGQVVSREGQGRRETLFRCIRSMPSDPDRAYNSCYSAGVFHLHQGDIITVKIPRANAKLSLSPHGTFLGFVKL
TACI_d1 (first CRD of TACI, residues 32-67), sequence (O14836 32-67): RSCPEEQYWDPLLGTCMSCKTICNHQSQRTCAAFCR

IC50 (TRX-APRIL (mouse) [1]) [nM]	IC50 (human BAFF [2]) [nM]	IC50 (TRX-APRIL (mouse) [3]) [nM]	IC50 (human BAFF [4]) [nM]	IC50 (human BAFF [5]) [nM]	IC50 (human BAFF [6]) [nM]	Substance
12	6	129	23	–	–	hTACI CRD1 LS (human TACI CRD1 R32-R67 with NHQSQRT replaced by GQHPKQ of CRD2)
3000	–	1000	–	> 100	> 100	TACI_d1 (first CRD of TACI, residues 32-67)
